Assay results reported in article PMC4564764, “Collagen Q and anti-MuSK autoantibody competitively suppress agrin/LRP4/MuSK signaling” (Scientific Reports, 2015).

Target: T1, purified recombinant ectodomain of human MuSK fused to myc (hMuSKect-myc), wild type (human, UniProt O15146 24-495)
T1 construct: muscle-specific receptor tyrosine kinase (MuSK), human, ectodomain (Ig1, Ig2, Ig3, C6 box, Ig4); It holds the C6 box, since a ΔC6 form was made from it; also called Wt; source: HEK293, transfected with phMUSKect-myc; in lysate for co-IP; not shown: myc, C-terminal, kept
T1 sequence (looked up): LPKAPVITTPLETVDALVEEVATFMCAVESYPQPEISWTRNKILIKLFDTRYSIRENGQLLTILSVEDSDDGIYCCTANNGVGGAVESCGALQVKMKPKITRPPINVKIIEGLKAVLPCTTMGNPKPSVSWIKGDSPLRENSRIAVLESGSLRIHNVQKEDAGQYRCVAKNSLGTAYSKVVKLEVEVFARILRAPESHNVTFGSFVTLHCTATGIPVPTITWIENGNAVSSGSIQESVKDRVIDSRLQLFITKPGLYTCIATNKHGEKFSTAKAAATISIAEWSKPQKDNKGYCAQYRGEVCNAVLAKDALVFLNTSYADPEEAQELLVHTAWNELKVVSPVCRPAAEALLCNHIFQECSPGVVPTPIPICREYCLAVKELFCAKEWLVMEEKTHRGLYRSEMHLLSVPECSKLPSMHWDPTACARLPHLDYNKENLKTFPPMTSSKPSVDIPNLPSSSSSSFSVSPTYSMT
Assay: ELISA; in vitro plate-binding assay: 0.15 ug hMuSKect-myc coated on a Maxi-Sorp plate, blocked with 1% BSA; 0.12 ug hLRP4N-FLAG overlaid with or without 0.24 ug rat neural agrin, room temperature 2 h; bound hLRP4N-FLAG read with anti-FLAG-HRP, normalised to that without agrin
Conditions: both partners purified

B1: N-terminal ectodomain of human LRP4 fused to FLAG (hLRP4N-FLAG) (domain or fragment, UniProt O75096 21-1725, looked up)
chain: SSPECACGRSHFTCAVSALGECTCIPAQWQCDGDNDCGDHSDEDGCILPTCSPLDFHCDNGKCIRRSWVCDGDNDCEDDSDEQDCPPRECEEDEFPCQNGYCIRSLWHCDGDNDCGDNSDEQCDMRKCSDKEFRCSDGSCIAEHWYCDGDTDCKDGSDEENCPSAVPAPPCNLEEFQCAYGRCILDIYHCDGDDDCGDWSDESDCSSHQPCRSGEFMCDSGLCINAGWRCDGDADCDDQSDERNCTTSMCTAEQFRCHSGRCVRLSWRCDGEDDCADNSDEENCENTGSPQCALDQFLCWNGRCIGQRKLCNGVNDCGDNSDESPQQNCRPRTGEENCNVNNGGCAQKCQMVRGAVQCTCHTGYRLTEDGHTCQDVNECAEEGYCSQGCTNSEGAFQCWCETGYELRPDRRSCKALGPEPVLLFANRIDIRQVLPHRSEYTLLLNNLENAIALDFHHRRELVFWSDVTLDRILRANLNGSNVEEVVSTGLESPGGLAVDWVHDKLYWTDSGTSRIEVANLDGAHRKVLLWQNLEKPRAIALHPMEGTIYWTDWGNTPRIEASSMDGSGRRIIADTHLFWPNGLTIDYAGRRMYWVDAKHHVIERANLDGSHRKAVISQGLPHPFAITVFEDSLYWTDWHTKSINSANKFTGKNQEIIRNKLHFPMDIHTLHPQRQPAGKNRCGDNNGGCTHLCLPSGQNYTCACPTGFRKISSHACAQSLDKFLLFARRMDIRRISFDTEDLSDDVIPLADVRSAVALDWDSRDDHVYWTDVSTDTISRAKWDGTGQEVVVDTSLESPAGLAIDWVTNKLYWTDAGTDRIEVANTDGSMRTVLIWENLDRPRDIVVEPMGGYMYWTDWGASPKIERAGMDASGRQVIISSNLTWPNGLAIDYGSQRLYWADAGMKTIEFAGLDGSKRKVLIGSQLPHPFGLTLYGERIYWTDWQTKSIQSADRLTGLDRETLQENLENLMDIHVFHRRRPPVSTPCAMENGGCSHLCLRSPNPSGFSCTCPTGINLLSDGKTCSPGMNSFLIFARRIDIRMVSLDIPYFADVVVPINITMKNTIAIGVDPQEGKVYWSDSTLHRISRANLDGSQHEDIITTGLQTTDGLAVDAIGRKVYWTDTGTNRIEVGNLDGSMRKVLVWQNLDSPRAIVLYHEMGFMYWTDWGENAKLERSGMDGSDRAVLINNNLGWPNGLTVDKASSQLLWADAHTERIEAADLNGANRHTLVSPVQHPYGLTLLDSYIYWTDWQTRSIHRADKGTGSNVILVRSNLPGLMDMQAVDRAQPLGFNKCGSRNGGCSHLCLPRPSGFSCACPTGIQLKGDGKTCDPSPETYLLFSSRGSIRRISLDTSDHTDVHVPVPELNNVISLDYDSVDGKVYYTDVFLDVIRRADLNGSNMETVIGRGLKTTDGLAVDWVARNLYWTDTGRNTIEASRLDGSCRKVLINNSLDEPRAIAVFPRKGYLFWTDWGHIAKIERANLDGSERKVLINTDLGWPNGLTLDYDTRRIYWVDAHLDRIESADLNGKLRQVLVSHVSHPFALTQQDRWIYWTDWQTKSIQRVDKYSGRNKETVLANVEGLMDIIVVSPQRQTGTNACGVNNGGCTHLCFARASDFVCACPDEPDSRPCSLVPGLVPPAPRATGMSEKSPVLPNTPPTTLYSSTTRTRTSLEEVEGRCSERDARLGLCARSNDAVPAAPGEGLHIS
notes: low-density lipoprotein receptor-related protein 4 (LRP4), human, printed as 'the N-terminal ectodomain of human LRP4'; also called hLRP4-FLAG; source: HEK293, transfected with phLRP4N-FLAG; in lysate for co-IP; not shown: FLAG, C-terminal, kept
fold increase of bound hLRP4N-FLAG with agrin over without agrin: 36 fold
